These results are taken from patent US20080299666A1, “Novel Peptide-Based Borono-Lectin (PBL) Sensors” (University of South Carolina, priority 2007, published 2008).

The conditions of experiment [1]: binding with fructose at pH=8; 480 nm to 450 nm; cited from earlier work.
Experiment [2] in a line: Binding of control proteins to the PBL library. The note with it: fluorescently labeled protein. Here is the method:
To minimize non-specific binding, the resin was pre-incubated with 1% BSA. When binding glycoproteins to the library (about 10 min. to 12 hr—about 1 ng/mL to 1 mg/mL), 1% BSA and 10% glycerol were also included. The resin was washed extensively with phosphate buffered saline (PBS) after binding.

Experiment [3] can be described thus: Non-specific binding and BSA blocking: FITC-BSA and FITC-Ovalbumin on PBL library, bead fluorescence. Conditions: for Mean of luminosity of fluorescent beads: exposure time 832 ms; for Binding to PBL library by bead fluorescence (non-specific vs specific): exposure time 62.4 ms. The text has this:
On the other hand, we used the PBL library to bind FITC labeled bovine serum album (BSA) to observe non-specific binding. There should not be binding between them because there are no carbohydrates on BSA. The experimental results were compared in FIG. 2.14. […] That means the amount of non-specific binding is less than specific binding. In order to see whether the blocking PBL library with BSA is useful to prevent the non-specific binding, we compared the binding samples with and without blocking with BSA. Two fluorescently labeled proteins were used: FITC-BSA and FITC-Ovalbumin. In FIG. 2.14, it is not easy to differentiate the images 2 and 3 under 62.4 ms exposure time. We increased the exposure time to 832 ms and compared quantitatively the luminosity of fluorescent beads (with red circles). The mean of luminosity for image 2 is 63.57 and 38.84 for image 3; while for image 4 and 5, they are 38.63 and 19.86 respectively. […] In one experiment (Table 2.2, row 1 and 4), we counted the rate of hits which decreased when the PBLs were blocked with BSA.

Experiment [4] can be described thus: Detection limit of fluorescently-labeled glycoproteins bound to PBL library beads (fluorescence microscopy). The experiment is classed as binding. Here is the method:
To determine how low the concentration is at which we can still differentiate the fluorescence of the beads, the PBL library beads were blocked with 1% BSA and then incubated with varying concentration of FITC-labeled ovalbumin, PSM and CEA and CR-labeled ovalbumin and PSM with the addition of 10% (v/v) glycerol overnight. After washing away unbound glycoproteins, fluorescence images were obtained. The PBL library without addition of glycoprotein was used as a control sample. Here, the limit of glycoprotein detection is defined as the lowest concentration of fluorescently-labeled glycoproteins at which their binding to PBL library beads can give enough fluorescence intensity for visual observation. However, the concentration limits are also exposure time dependent, e.g., for FITC-Ovalbumin, and FITC-BSM, the lowest concentrations for visual observation of fluorescence under exposure time 252 ms are about 10 μg/ml, but if the exposure time was increased, the fluorescence can be observed even under dilute concentration. For instance, for FITC-Ovalbumin, the detection limit will lower to about 0.1 μg/ml when exposure time is increased to 4.69 s (FIGS. 2.15, 2.16 and Table 2.3). For FITC-CEA, if observed under 252 ms, the fluorescence of beads is strong. Its concentration limit is about 0.1 (μg/ml) under this exposure time (FIG. 2.17). Stronger fluorescence from FITC-CEA if under the same exposure time as others may be due to CEA having more terminal glycans compared to others.
For CR-glycoproteins, since the PBL library itself is lightly fluorescent under excitation wavelength=510-560 nm, in order to avoid high background interference, we chose comparatively lower exposure time (62.4 ms) when we took the images (FIGS. 2.18 and 2.19). Under this exposure time, the concentration limits for CR-Ovalbumin and CR-PSM were 1 μg/ml (Table 2.3). If we mention the concentration limit of screening, we mention exposure time because the concentration limit is exposure dependent.
FITC-glycoprotein or CR-glycoprotein solution was added into the borono-peptide beads and tumbled overnight at room temperature. The beads were then washed by PBS buffer (0.1M, pH=7.3 150 mM NaCl) (for CR-glycoproteins, beads were washed with methanol first and then washed with PBS buffer) and beads were observed under fluorescence microscope (Nikon, eclipse, E600) and pictures were taken.

Experiment [5] in a line: PBL library response to FITC-tagged CEA at varying concentrations. It counts as binding. The text has this:
Higher sensitivity is achieved using longer integration times on the camera to image the beads, up to 25 ms to obtain the 10 pg/mL image.

Where [6] appears, read: PBL library blocked with BSA (images 3 and 5).
[7] abbreviates: without BSA blocking (images 2 and 4).

For the molecule `CN(C)c1ccc(/C=C/c2ccc(B(O)O)cc2)cc1` [DSTBA, 4′-Dimethylaminostilbene-4-boronic acid], the “Blue shift of the emission” value in experiment [1] is listed as 30 nm.
Consider “FITC-BSA: FITC labeled bovine serum albumin, not a glycoprotein [reference compound]”, for which the “Binding to the PBL library (qualitative)” value in experiment [2] is recorded as “no appreciable binding”. The “Mean of luminosity of fluorescent beads” value was determined as 38.84 in experiment [3] (setting [6]) and 63.57 in experiment [3] (setting [7]). In addition, the “Binding to PBL library by bead fluorescence (non-specific vs specific)” value in experiment [3] is given as “non-specific binding is minimal”.

B1: FITC-Oval: conjugate of fluorescein isothiocyanate and chicken ovalbumin (conjugate, UniProt P01012 2-386, looked up)
Ovalbumin: GSIGAASMEFCFDVFKELKVHHANENIFYCPIAIMSALAMVYLGAKDSTRTQINKVVRFDKLPGFGDSIEAQCGTSVNVHSSLRDILNQITKPNDVYSFSLASRLYAEERYPILPEYLQCVKELYRGGLEPINFQTAADQARELINSWVESQTNGIIRNVLQPSSVDSQTAMVLVNAIVFKGLWEKAFKDEDTQAMPFRVTEQESKPVQMMYQIGLFRVASMASEKMKILELPFASGTMSMLVLLPDEVSGLEQLESIINFEKLTEWTSSNVMEERKIKVYLPRMKMEEKYNLTSVLMAMGITDVFSSSANLSGISSAESLKISQAVHAAHAEINEAGREVVGSAEAGVDAASVSEEFRADHPFLFCIKHIATNAVLFFGRCVSP
modifications: FITC label
notes: conjugate of fluorescein isothiocyanate and chicken ovalbumin
For B1, the “Concentration limit (detection limit)” value in experiment [4] (FITC label, exposure time 4.69 s) was “about 0.1 μg/ml”; in experiment [4] (FITC label, exposure time 252 ms, beads blocked with 1% BSA, 10% (v/v) glycerol, overnight) it was 10 µg/mL; in experiment [4] (FITC label, exposure time 252 ms, beads blocked with 1% BSA, 10% (v/v) glycerol, overnight, listed as FITC-Ovalbumin), “about 10 μg/ml”. In addition, the “Mean of luminosity of fluorescent beads” value is 19.86 in experiment [3] (setting [6]) and 38.63 in experiment [3] (setting [7]). Further, the “Binding to PBL library by bead fluorescence (non-specific vs specific)” value in experiment [3] is given as “fluorescence can be observed clearly”.

B2: CR-Oval: ovalbumin labeled with carboxyrhodamine (conjugate, UniProt P01012 2-386, looked up)
Ovalbumin: B1 Ovalbumin
modifications: carboxyrhodamine label
notes: ovalbumin labeled with carboxyrhodamine
For the molecule B2, in experiment [4] (CR label, exposure time 62.4 ms, beads blocked with 1% BSA, 10% (v/v) glycerol, overnight), the “Concentration limit (detection limit)” value is 1 µg/mL.

B3: FITC-CEA: Carcinoembryonic antigen labeled with FITC (conjugate, UniProt P06731 35-685, looked up)
Cell adhesion molecule CEACAM5: KLTIESTPFNVAEGKEVLLLVHNLPQHLFGYSWYKGERVDGNRQIIGYVIGTQQATPGPAYSGREIIYPNASLLIQNIIQNDTGFYTLHVIKSDLVNEEATGQFRVYPELPKPSISSNNSKPVEDKDAVAFTCEPETQDATYLWWVNNQSLPVSPRLQLSNGNRTLTLFNVTRNDTASYKCETQNPVSARRSDSVILNVLYGPDAPTISPLNTSYRSGENLNLSCHAASNPPAQYSWFVNGTFQQSTQELFIPNITVNNSGSYTCQAHNSDTGLNRTTVTTITVYAEPPKPFITSNNSNPVEDEDAVALTCEPEIQNTTYLWWVNNQSLPVSPRLQLSNDNRTLTLLSVTRNDVGPYECGIQNELSVDHSDPVILNVLYGPDDPTISPSYTYYRPGVNLSLSCHAASNPPAQYSWLIDGNIQQHTQELFISNITEKNSGLYTCQANNSASGHSRTTVKTITVSAELPKPSISSNNSKPVEDKDAVAFTCEPEAQNTTYLWWVNGQSLPVSPRLQLSNGNRTLTLFNVTRNDARAYVCGIQNSVSANRSDPVTLDVLYGPDTPIISPPDSSYLSGANLNLSCHSASNPSPQYSWRINGIPQQHTQVLFIAKITPNNNGTYACFVSNLATGRNNSIVKSITVSASGTSPGLSA
modifications: FITC label
For B3, the “PBL library response (microscope image)” value was “responding” in experiment [5] (10 pg/mL CEA, integration times up to 25 ms) and “responding” in experiment [5] (10 ng/mL CEA).
